# Assay results reported in article PMC9617004, “Cloning and characterization of thermophilic endoglucanase and its application in the transformation of ginsenosides” (AMB Express, 2022).
# Legend:
# Assay in all cases: HPLC of ginsenoside conversion, Michaelis-Menten
# Type in all cases: biochemical, Fervidobacterium pennivorans
# Settings in all cases: 50 mM phosphate-citrate, pH 6.0, 95 °C, substrate range stated as 0.5 to 10.0 mM (printed unit µM may be mM)
# [1] = substrate: CC(C)=CCC[C@](C)(O[C@@H]1O[C@H](CO)[C@@H](O)[C@H](O)[C@H]1O)[C@H]1CC[C@]2(C)[C@@H]1[C@H](O)C[C@@H]1[C@@]3(C)CC[C@H](O[C@@H]4O[C@H](CO)[C@@H](O)[C@H](O)[C@H]4O[C@@H]4O[C@H](CO)[C@@H](O)[C@H](O)[C@H]4O)C(C)(C)[C@@H]3CC[C@]12C
# Description: (§1) HPLC of ginsenoside conversion, Michaelis-Menten on BcelFp
# [2] = substrate: [H][C@@]1(O[C@@H]2[C@@H](O)[C@H](O)[C@@H](CO)O[C@@]2([H])O[C@H]2CC[C@]3(C)[C@@]4([H])C[C@@H](O)[C@]5([H])[C@@]([H])([C@](C)(CCC=C(C)C)O[C@@H]6O[C@H](CO[C@@H]7OC[C@H](O)[C@H](O)[C@H]7O)[C@@H](O)[C@H](O)[C@H]6O)CC[C@@]5(C)[C@]4(C)CC[C@@]3([H])C2(C)C)O[C@H](CO)[C@@H](O)[C@H](O)[C@H]1O
# Description: as §1
# [3] = substrate: CC(C)=CCC[C@](C)(O[C@@H]1O[C@H](CO[C@@H]2O[C@H](CO)[C@@H](O)[C@H](O)[C@H]2O)[C@@H](O)[C@H](O)[C@H]1O)[C@H]1CC[C@]2(C)[C@@H]1[C@H](O)C[C@@H]1[C@@]3(C)CC[C@H](O[C@@H]4O[C@H](CO)[C@@H](O)[C@H](O)[C@H]4O[C@@H]4O[C@H](CO)[C@@H](O)[C@H](O)[C@H]4O)C(C)(C)[C@@H]3CC[C@]12C
# Description: as §1
protein,measurement,setting,value
"BcelFp (Fervidobacterium pennivorans DSM 9078) (protein, 323 residues (969 bp), N-terminal His-tag, pET28a BamHI/XhoI, E. coli BL21-CodonPlus(DE3)-RIL, Ni-NTA; calculated 37,892 Da, about 38 kDa by SDS-PAGE; forward primer starts … (MDQSVA)) MDQSVAESDSNSALEYNKIIGKGVNIGNALEAPFEGAWGVRIEDEYFEIIKKRGFDSVRIPIRWSAHISEKPPYDIDRNFLERVKHVVDRALENNLTVIINTHHFEELYQEPDKYGNVLVEIWRQIAKFFKDYPENLFFEIYNEPAQNLTAEKWNELYPKVLKVIRESNPTRIVIIDAPNWAHYSAVRSLKLVNDKRIIVSFHYYEPFNFTHQGAEWVNPTPPVGVKWNGEEWEINQIRSHFKYVSDWAKQNKVPIFLGEFGAYSKADMDSRVKWTESVRKMAEEFGFSYAYWEFCAGFGIYDRWSQNWIEPLATAVVGESKE",Vmax,[1],156 µM/min
same,kcat/Km,[1],27900 M⁻¹ s⁻¹
same,Km,[1]; unit of the source corrected,670 µM
same,Vmax,[2],315 µM/min
same,kcat/Km,[2],9390 M⁻¹ s⁻¹
same,Km,[2]; unit of the source corrected,4020 µM
same,Vmax,[3],382 µM/min
same,kcat/Km,[3],12500 M⁻¹ s⁻¹
same,Km,[3]; unit of the source corrected,3660 µM
